One series concerns the target gRAMP (Candidatus Scalindua brodae, UniProt A0A0B0EGF3 1-1717). Put plainly: cryo-EM; Complex assembly at 1:1.2 (complex:target RNA), 5 mM EDTA, on ice 30 min; SEC in 20 mM Tris-HCl pH 8.0, 150 mM NaCl, 1 mM DTT. To be noted: protein: recombinant; tags: N-terminal His6; single strand; 35 nt modelled in 7Y80 and 7Y84.
Another series deals with gRAMP;TPR-CHAT (Candidatus Scalindua brodae;Candidatus …, UniProt A0A0B0EGF3;A0A0B0EKL4 1-1717;1-716, |). Put plainly: cryo-EM (2.6 A); Complex assembly at 1:1.2 (complex:target RNA), 5 mM EDTA, on ice 30 min; SEC in 20 mM Tris-HCl pH 8.0, 150 mM NaCl, 1 mM DTT. To be noted: protein: recombinant;recombinant; tags: N-terminal His6;C-terminal Strep II; copies: 1;1; single strand; 35 nt modelled in 7Y80 and 7Y84.

B1: crRNA (ssRNA)
RNA: GACUUAAUGUCACGGUACCCAAUUUUCUGCCCCGGACUCCACGGCUGUUACUAGAG
Take B1: the binding result with gRAMP and with gRAMP;TPR-CHAT was “binds” each time.

Values taken from PMC9729208, “Structural basis for the non-self RNA-activated protease activity of the type III-E CRISPR nuclease-protease Craspase”.
